Where no end group is shown, it is not given here. [ ]: non-standard residue; d: D form. pGlu = O=C1CC[C@@H](C(=O)O)N1
Tests used:
scFv region of I2C = biological target: T1, scFv region of I2C; assay: co-crystal structure used as input for the modelling
T1 construct: also called VH-VL of I2C

[1] = biological target: T2, FLT3xCD3 TCE SEQ ID NO 93; assay: KinExA equilibrium in solution, KD relative to peptide concentration, TCE 125 pM
T2 construct: Single-chain scFv-scFv-scFc T cell engager; also called FLT3×CD3ε TCE; FLT3_7 A8xCD3-scFc Bispecific HLE molecule

[2] = biological target: T2, FLT3xCD3 TCE SEQ ID NO 93; assay: KinExA equilibrium in solution, KD relative to peptide concentration, TCE 250 pM; alias in this row reads 20 k Linear Thioether

binding result (scFv region of I2C)	Kd [1]	Kd [2]	Binder
binds			[pGlu]DGNEELK (Position 1 is written E for pE; also called CD3ε peptide) [pE-DGNEELK]
	0.0122 nM	0.153 nM	[pGlu]DGNEELKGK-OH (also: Lys 10 side chain linked via thioether (acetamide) to 4-arm 20 kDa PEG, TCE masking molecule) [73135-2]

Reference: patent US20260258083A1 (Amgen, published 2026)
